Measured values published in patent US8124583B2, “Composition and method for self-assembly and mineralization of peptide-amphiphiles” (Northwestern University, priority 2002, dated 2012).
Square brackets hold non-standard residues; d marks the D form. * marks the point of attachment. Palmitoyl = CCCCCCCCCCCCCCCC(=O)*; pS = N[C@@H](COP(=O)(O)O)C(=O)O; C16 = 16 carbon alkyl tail

Tests used:
Assay type in all cases: physicochemical
[1] = Gelation of charged peptide amphiphile solutions with ions or with each other; conditions: positive PA in Ca+2 (reaction 4); negative PA in PO4−3 (reaction 5)
Excerpt: In another example of this invention, the composition and method consists of using highly charged peptide amphiphile species (16 carbon alkyl tail with a sequence like CCCCGGGSS(P)DS(P)D (SEQ ID NO: 14) with a −7 charge, for example) dissolved in a solution of negative ions (phosphate ions with a −3 charge), call this solution X. A second solution with a positively-charged peptide amphiphile species (such as 16 carbon alkyl tail with a sequence like ACAAGGGKRGDS (SEQ ID NO: 21)—an amine terminated PA at +1 charge) in a solution with positively-charged ions, such as Ca^2+; call this solution Y. In both solutions the peptide heads are charged and the structural element of the peptide can be varied, to give different charged peptide-amphiphile species, depending on the application.
The positive and negative peptide amphiphiles alone (no added salt ions) will gel each other, reaction 1, when mixed in the right ionic ratios (1:7, (−):(+) in this instance), forming mixed peptide amphiphile nanofibers, theoretically composed of 7 positive peptide amphiphiles for every 1 of the negative peptide amphiphiles. The positive peptide amphiphile solution Y may be gelled, reaction 2, with the negative ions (for example a solution containing phosphate ion PO4^−3). […] Mixing the positive and negative ions (calcium cation with phosphate anion) will make calcium phosphate mineral (reaction 6). […]

Solubility in water = conditions: for concentration at which the molecules dissolve: pH 7.5-adjusted water
Description: (§1) The two molecules dissolve in pH 7.5-adjusted water at a concentration of about 10 mg/mL. Molecule 1 has a charge of (−1) and molecule 2 has a charge of (+2) under these conditions.
Cleavage and deprotection of the molecules was accomplished with a mixture of trifluoroacetic acid (TFA) and triisopropylsilane (TIS) in a ratio of 95:5 for three hours at room temperature. The cleavage mixture and two subsequent TFA washings were filtered into a round bottom flask. The solution was roto-evaporated to a thick viscous solution. This solution was triturated with cold diethylether. The white precipitate was collected by filtration, washed with copious cold ether and dried under vacuum. The molecules were then dissolved in water at a concentration of 10 mg/mL, adjusting the pH to improve solubility. The solution was initially acidic in both cases. In the case of molecule 1, the pH was raised to about pH 8 with 2M and 100 mM KOH, then back-titrated to pH 7.

[2] = Self assembly/gelation with monovalent salts (KCl, NaCl); conditions: mixing with 200 mM KCl or NaCl solutions
Description: as §1
In all cases self assembled gels comprised of the nanofibers were formed similar to those described elsewhere (Hartgerink et al., 2001; Hartgerink et al., 2002). In contrast no self assembly or gel formation was observed when other negatively or positively charged peptide-amphiphiles were exposed to the NaCl or the KCl at concentrations up to 6 M. The fact that molecules 1 and 2 assemble in the presence of the monovalent salts sets them apart from the other molecules studied. […] The reason for this difference may be in the structure of these molecules. Both these molecules contain IKVAV (SEQ ID NO: 1) sequence at the c-terminus of the peptide segment. […]
Transmission Electron Micrographs of samples of the supramolecular compositions from the multi-dimensional peptide-amphiphiles, Molecule 1 and Molecule 2, were prepared as follows. A small sample of the supramolecular composition gel, prepared in bulk as described above, was smeared onto a holey carbon coated TEM grid (Quantifoil). […]

[3] = Self assembly with CaCl2 and hydroxyapatite mineralization of nanofiber gel (TEM, electron diffraction)
Description: A liquid composition for the self assembly of (1) and mineralization of hydroxyapatite was prepared by dissolving […] NaH2PO4 (Aldrich) into 200 microliters of (1) at a concentration of 10 mg/ml in water. The pH of the solution was adjusted to 7.7.
The liquid composition containing (1) and NaH2PO4 was mixed with 40 micromoles of CaCl2 (Aldrich).
Samples of the gel after 2 hours, 1 day, and 5 days were mounted on carbon-coated TEM grids. TEM studies of the 1 and 5 day samples show a multi-crystalline material composed of plate like crystals˜5 nm thick and 50 to 100 nm long. The plate like crystals were similar to those observed in the mineralization experiments on the pre-assembled template.

Substance	gelation in ions of the same charge sign [1]	concentration at which the molecules dissolve (Solubility in water)	gel formation with monovalent salt [2]	also measured
ACAAGGGKRGDS [positively-charged peptide amphiphile, 16 carbon alkyl tail, amine terminated PA]	does not gel			
C15H31C(O)-CCCCGGGEIKVAV-COOH (Palmitoyl-CCCCGGGEIKVAV-OH; cysteine pairing not given here) [PA 22]		about 10 mg/mL	self-supporting gel forms	
C15H31C(O)-CCCCGGGEIKVAV-NH2 (Palmitoyl-CCCCGGGEIKVAV-NH2; cysteine pairing not given here) [Molecule 2]		about 10 mg/mL	self-supporting gel forms	pH dependence of solubility (Solubility in water; water, 10 mg/mL, pH adjusted with KOH): most soluble at low pH
C15H31C(O)-CCCCGGGS(P)RGD-COOH (Palmitoyl-CCCCGGG[pS]RGD-OH; cysteine pairing not given here) [PA 18]				self assembled gel formation ([3]; addition of CaCl2 to 10 mg/ml peptide-amphiphile preloaded with NaH2PO4, pH 7.7): formed immediately; time until gel turned a white color (mineralization started) ([3]; after CaCl2 addition): about 2 hours
CCCCGGGSS(P)DS(P)D (C16-CCCCGGGS[pS]D[pS]D-OH; cysteine pairing not given here; also: C16 alkyl tail)	does not gel			
